Assay results reported in the nanobody polyreactivity screen of Harvey et al. (2022).

Assay: yeast display, Sf9 membrane polyspecificity reagent, FACS + sequencing; frameworks hold sequencing errors
How it was run: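 Nanobodies came from a synthetic yeast display library in Saccharomyces cerevisiae BJ5465, induced with galactose for 36–48 hours and stained for 1 hour at 4 °C with 10% biotinylated, detergent-solubilized Sf9 membrane reagent. Cells were enriched on streptavidin microbeads and then FACS-sorted, with low and high (top ~1%) gates set on anti-HA fluorescence for expression and streptavidin fluorescence for reagent binding. Each polyreactivity label reflects the gate a clone came from. Genes were amplified by colony PCR, sequenced by MiSeq 2 × 250 and filtered by CDR length.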

Sequence | polyreactivity (PSR sort gate)
QVQLVESGGGLVQAGGSLRLSCAASGSTITYYAMGWYRQAPGKERELVAAISGSGRTHYADSVKGRFTISRDNAKNTVYLQMNSLKPEDTAVYDCNARQYTYNYAFTRCKYDYWGQGTQVTVSS | high polyreactivity
QVQLVESGGGLVQAGGSLRLSCAASGSTIVGYTMGWYRQAPGKERELVAAISRGGGSTYYADSVKGRFTISRDNAKNTVYLQMNSLKPEDTAVYYCNAYTYNRYYWGQGTQVTVSS | high polyreactivity
QVQLVESGGGLVQAGGSLRLSCAASGSTIVIYTMGWYRQAPGKERELVAAISQSGGRTYYADSVKGRFTISRDNSKNTVYLQMNSLKPEDTAVYYCAATWGKHYGYWGQGTQVTVSS | high polyreactivity
QVQLVESGGGLVQAGGSLRLSCAASGSTIVVNAMGWSRQAPGKERELVASISWTTGSTYYADSVKGRFTISRDNAKNTVFLQMNSLKPEDTAVYYCAADILPRYSQFDYWGQGTQVTVSS | low polyreactivity
QVQLVESGGGLVQAGGSLRLSCAASGSTIVYYAMGWYRQAPGKERELVARITWSGGRTYADSVKGRFTISRDNAKNTVYLQMNSLKPEDTAVYYCNADPGDNTTEYDYWGQGTQVTVSS | low polyreactivity
QVQLVESGGGLVQAGGSLRLSCAASGSTIYINGMGWYRQAAGKERELVAVISKRGGTTYYADSVKGRFTISRDNAKNTVYLQMNSLKPEDTAVYYCADRPYYWGQGTQVTVSS | high polyreactivity
QVQLVESGGGLVQAGGSLRLSCAASGSTIYLYAMGWSRPAPGKERVLVAAIRGRGGRTYYADSVKGRFTISSDNAKNTVYLKMNSLKPEDTAVYYCNADVYAYYRATTRFDYWGQGTQVTVSS | high polyreactivity
QVQLVESGGGLVQAGGSLRLSCAASGSTLAIYAKGWYRQAPGKERELVAAISGGGSTYADSVKGRFTISRDNAKNTVYLQMNSLKPEDTAVYYCNADGWGDRFWSNFRFDYWGQGTQVTVSS | low polyreactivity
QVQLVESGGGLVQAGGSLRLSCAASGSTLALNAIGWYRQAPGKEREFVADISWSGGDTYYADSVKGRFTISRDNAKNTVYLQMNILKPEDTAVYYCATDFSYQFQALEDDYWGQGTQVTVSS | low polyreactivity
QVQLVESGGGLVQAGGSLRLSCAASGSTLALYTMGWYIQAPGKERELVAAISKNGGRTYYADSVKGRFRISRDNAMNTVYLQMNSLKPEDTAVYYCAAASGSYRGYDYWGQCTQVTVSS | high polyreactivity
QVQLVESGGGLVQAGGSLRLSCAASGSTLARYAMGWYRQAPGKERELVAAISSDGRTYYADSVKGRFTISRDNAKNTVYLQIYSLKPEDTAVYYCATLRPYAYPQYDSWGQGTQVTVSS | high polyreactivity
QVQLVESGGGLVQAGGSLRLSCAASGSTLDGYGMRWYRQAPGKERELVAVITIGGGRTYYADSVKGRFTISRDNAKNTVYLQMNSLKPEDTAVSYCAAKGWRRYYIGDYWGQGTQVTVSS | high polyreactivity
QVQLVESGGGLVQAGGSLRLSCAASGSTLDSYAMGSYRQAPGKERELVAAISGSGGSTYYADSVKGRFTISRDNAKNTVYLEMNSLKPEDTAVYYCDTDYSTQTLGYWYDYWGQGTQVSVSS | low polyreactivity
QVQLVESGGGLVQAGGSLRLSCAASGSTLFYAMGWYRQAPGKERELVAAISWSGGSTRYADSVKGRFTISRDNAKNTVYLQMNSLKPEDTAVYYCNTYTKHTGYYWKYDYWGQGTQVTVSS | low polyreactivity
QVQLVESGGGLVQAGGSLRLSCAASGSTLGDNGMGWYIQAPGKERELVAAITIGGSTTYADSVKGRFTISRDNAKNTVYLQMNSLKPEDTAVYYCAADQQARDQYSDWTEYDYWGQGTQVNVSS | low polyreactivity
QVQLVESGGGLVQAGGSLRLSCAASGSTLGPYAMGWYRQAPGKERELVATINSSGSTNYADSVKGRFTISRDNAKNPVYLQMNSLKPEDTAVYYCATLHYYYWYDYWGQGTQVTVSS | low polyreactivity
QVQLVESGGGLVQAGGSLRLSCAASGSTLGRYAMGWYRQAPGKERELVASITWSDDSTYYADSVKGRFTISRDNAKNTVYLQMNSLKPEDTAVYYCAAAGNLYTYRFYYWGQGTQVTVSS | low polyreactivity
QVQLVESGGGLVQAGGSLRLSCAASGSTLGVYAMGWYRQAPGKERELVAAITIGGSTNFADSVKGRFTISRDNAKNTVYLQLNSLKPEDTAVYYCNAYYYWEGHGYTLLSYYYWGQGTQVTVSS | low polyreactivity
QVQLVESGGGLVQAGGSLRLSCAASGSTLGWYGMGWSRQAPGKERELVAAIDSGGNTYADSVKGRFTISRDNAKNTVYLQMNSLKPEDTAVYYCAVDGGEFSSYGYWGQGTQVTVSS | low polyreactivity
QVQLVESGGGLVQAGGSLRLSCAASGSTLGYYAMGWYRQAPGIVRELVAAISWSGGRTYYADSVKGRFTISRDYAKNTVYLQMKSLKPEDTAVYYCNALYRTHYTGSVYYSWGQGTQVSVSS | high polyreactivity
QVQLVESGGGLVQAGGSLRLSCAASGSTLGYYAMGWYRQAPGKERELVAAITSSDGGTYYADSVKGRFTISRDNAKNTVYLQMNSLKPEDTAVYYCAKRRYTSAFGSWYAYDYWGQGTQVNVSS | high polyreactivity
QVQLVESGGGLVQAGGSLRLSCAASGSTLIDNVMGWYRQAPGKERELVASITSSDGTTYADSVKGRFTISRDNAKNTVYLQMNSLKPEDTAVYYCAARPWYGTYNYWGQGTQVTVSS | low polyreactivity

Sequence | polyreactivity (PSR sort gate)
QVQLVESGGGLVQAGGSLRLSCAASGSTLIRNDMGWYRQAPAKERELVAAINTRGTTTYYADSVKGRFTISRDNAKNTVYLQMNSLKPEDTAVYYCAAYAYSAYSPDGQRSRYYYWGQGTQVTVSS | high polyreactivity
QVQLVESGGGLVQAGGSLRLSCAASGSTLIRNVMGWYRQAPGKERELVAAINTRGTTTYYADSVKGRITISRDNAKNTVYLQMNSLKPEDTAVYYCAARTPHYSYGYWGQGTHVTVSS | high polyreactivity
QVQLVESGGGLVQAGGSLRLSCAASGSTLISYAMGSYRQAPGKERELDAAITYNGGTTHYADSVKGRLTISRDNAKNSVYLQLKSLKPEDTAVYYCAKAQGHVRVSRGLQGGRYDYWGQGTQVTVSS | low polyreactivity
QVQLVESGGGLVQAGGSLRLSCAASGSTLISYTMGWYRQAPGKERELVAAITSAVTTYYADSVKGRFTISRDNAKNTVYLQMNSLKPEDTAVYYCNTYPFKTLPYRYPRGDYWGQGTQVTVSS | low polyreactivity
QVQLVESGGGLVQAGGSLRLSCAASGSTLIVYAMGWYRQAPGKEREFVAGITVSTGSTYYADSVKGRFTISRDNAKNTVYLQMNSQKPEDTAVYYCAADIRDGWDYFLFWEDGMDYSGQGTQVTVSS | low polyreactivity
QVQLVESGGGLVQAGGSLRLSCAASGSTLKYNAMGWYRQAPGKEREFVASITLSACRTYYADSVKGRFTISRDNAKNTVYLQMNSLKPEDTAVYYCAARRYFSYRYDYWGQGTQVTVSS | high polyreactivity
QVQLVESGGGLVQAGGSLRLSCAASGSTLKYYAMGWYRQAPGKERELVARITRSSGSTYYADSVKGRFTISRDNAKNTVFLHMNSLKPEDTAVYYCNKVYKSYYCGCYDWGQGTQVTVLS | high polyreactivity
QVQLVESGGGLVQAGGSLRLSCAASGSTLLFYAMGWYRQAPGKEREFLATITFRGGSTYYADSVKGRFTISRDNAKNTVYLQMNSLKPEDTAVYYCNAGSRRGYYRSRPGGYCGQGTQVTVSS | high polyreactivity
QVQLVESGGGLVQAGGSLRLSCAASGSTLLVYAMGWYRQAPGKERELVAAITYSGTTTYYADSVKGRFTISRDNAKNTVYLQMNSLKPEDTAVYYCAKYPGYFQGNYWGQGTQVTVSS | low polyreactivity
QVQLVESGGGLVQAGGSLRLSCAASGSTLLYYAMGWYRQAPGKERELVAAISWRGGSTYYADSVTGRFTISRDNAKTTVYLQINSLKPEDTAVYYCARDIRLKGFRYDYWGQGTQVTVSS | high polyreactivity
QVQLVESGGGLVQAGGSLRLSCAASGSTLNDYAMGWYRQSPGKERELVAGINRGGSTNYADSVKGRFTISRDNAKNTVYLQMKSLKPVDTAVYYCAVRAYRWRSTLGLYYWGQGTQVTVSS | high polyreactivity
QVQLVESGGGLVQAGGSLRLSCAASGSTLNRNVMGWYRQAPGKEREFVAVITYGVGSTYYADSVKGRFTISRDNAKNTVYLQMNSLKPEDTAVYYCNKDPLVFDYWGQGTQVTVSS | low polyreactivity
QVQLVESGGGLVQAGGSLRLSCAASGSTLRGYAMGWYRQAPGKERELVARITSGGRTSYADSVKGRFTISRDNAKNTVYLQMNSLKPEDTAVYYCATRIYGWSFGSWYKYDYWGQGTQVTVSS | low polyreactivity
QVQLVESGGGLVQAGGSLRLSCAASGSTLRGYTMGWYRPAPGKERELVAAISWSGASTYYADSVKGRFTISRDSAKNTVYLQMNSLKPEVTAVYYCAVRYWAPYDEYGYWGQGTQVTVSS | high polyreactivity
QVQLVESGGGLVQAGGSLRLSCAASGSTLRGYTMGWYRQAPGKERELVAAISWSGASTYYADSVKGRFTISRDNAKNTVYLQMNSLKPEDTAVYYCYRAGRYVREYTVDYWGQGTQVTVSS | high polyreactivity
QVQLVESGGGLVQAGGSLRLSCAASGSTLRRHAMGWYRQAPGKERELVAAISSGGSTYYEDSVKGRFTISRDNAKNTVYLQMNSLKPEDTAVYYCAAPYSYRTWYPYGYWVQGTQVTVSS | high polyreactivity
QVQLVESGGGLVQAGGSLRLSCAASGSTLRRNAMGWYRQAPGKERELVAAISSGGSTYYADSVKGRFTISRDNAKNTVYLQMNSLKPEDTAVYYCNAAVPRGRYTSYYRSGWLDYWGQGTQVTVSS | high polyreactivity
QVQLVESGGGLVQAGGSLRLSCAASGSTLRRYAMGWYRQAPGKERELVAAISGTGSRTYYADSVKGRFSISRDNATNTVYLHMISLKREDTAVYYCNASPYGLTENDYWGQGTQVTVSS | high polyreactivity
QVQLVESGGGLVQAGGSLRLSCAASGSTLRRYAMGWYRQAPGKERELVAAITSRGTDTYYADSVKGRFTISRDNAKNTVYLQMNSLKPEDTAVYYCANRRGYVYYPGYDYWGQGTQVTVSS | high polyreactivity
QVQLVESGGGLVQAGGSLRLSCAASGSTLRYYAMGSYRQAPGKERELVAAISTGGSTYYADSVKGRFTISRDNAKNTVYLQMNSLKPEDTAVYYSAADGYAHVWDYAYDYWGQGTQVTVSS | low polyreactivity
QVQLVESGGGLVQAGGSLRLSCAASGSTLSAYVMGWYRQAPGKERELVAAITRGGNTYYADSVKGRFTISRDNAKNTVYLQMNSLKPEDTAVYYCAARTYVSYGYYTRNYWGQGTQVTVSS | high polyreactivity
